Among the data in paper PMC5494207 are stoichiometry N values, retold here.

Assay [1] has as its target FliG 158C/214C mutant (E. coli) (UniProt P0ABZ1). Nature of the assay: cross-linking.
The target of assay [2] is FliG 117C/166C protein (E. coli) (UniProt P0ABZ1). Nature of the assay: cross-linking.

Turning to “FliG 158C/214C mutant (from UniProt P0ABZ1 1-331) (natural protein)”, the stoichiometry N in assay [1] was over 9 subunits. The substance “FliG 117C/166C protein (from UniProt P0ABZ1 1-331) (natural protein)” gave a stoichiometry N in assay [2] of 8 subunits.
